{"source": "patent US9657062B2", "about": "“Ghrelin analogues” (Zealand Pharma A/S, priority 2012, dated 2017)", "note": "The star is where a group is joined. Octanoyl = CCCCCCCC(=O)*; Octyl = CCCCCCCC*"}
{"target": "human growth hormone secretagogue receptor type 1a (human, UniProt Q92847 1-366)", "sequence (Q92847 whole entry)": "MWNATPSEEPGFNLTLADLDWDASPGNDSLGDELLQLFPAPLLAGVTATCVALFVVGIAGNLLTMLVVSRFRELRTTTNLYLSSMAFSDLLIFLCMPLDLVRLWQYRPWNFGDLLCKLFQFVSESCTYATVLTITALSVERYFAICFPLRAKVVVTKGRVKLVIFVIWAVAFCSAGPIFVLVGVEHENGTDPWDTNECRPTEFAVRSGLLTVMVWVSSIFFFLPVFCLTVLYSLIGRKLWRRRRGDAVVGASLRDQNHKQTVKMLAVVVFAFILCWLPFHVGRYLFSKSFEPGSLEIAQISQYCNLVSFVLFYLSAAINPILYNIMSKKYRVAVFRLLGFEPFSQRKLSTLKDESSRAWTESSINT", "experiment": "cell-based or functional assay", "units": {"EC50 (nM); Ca2+ induction in HEK293 cells stably expressing the human ghrelin receptor": "nM"}}
{"binder": "H-PSS(Octanoyl)FLSPEHQSVQQRKESKKPPAKLQPR-NH2 (SMILES CCCCCCCC(=O)OC[C@H](NC(=O)[C@H](CO)NC(=O)[C@@H]1CCCN1)C(=O)N[C@@H](Cc1ccccc1)C(=O)N[C@@H](CC(C)C)C(=O)N[C@@H](CO)C(=O)N1CCC[C@H]1C(=O)N[C@@H](CCC(=O)O)C(=O)N[C@@H](Cc1c[nH]cn1)C(=O)N[C@@H](CCC(N)=O)C(=O)N[C@@H](CO)C(=O)N[C@H](C(=O)N[C@@H](CCC(N)=O)C(=O)N[C@@H](CCC(N)=O)C(=O)N[C@@H](CCCNC(=N)N)C(=O)N[C@@H](CCCCN)C(=O)N[C@@H](CCC(=O)O)C(=O)N[C@@H](CO)C(=O)N[C@@H](CCCCN)C(=O)N[C@@H](CCCCN)C(=O)N1CCC[C@H]1C(=O)N1CCC[C@H]1C(=O)N[C@@H](C)C(=O)N[C@@H](CCCCN)C(=O)N[C@@H](CC(C)C)C(=O)N[C@@H](CCC(N)=O)C(=O)N1CCC[C@H]1C(=O)N[C@@H](CCCNC(=N)N)C(N)=O)C(C)C)", "note": "[H-PS-S(octanoyl)-FLSPEHQSVQQRKESKKPPAKLQPR-NH2]", "EC50 (nM); Ca2+ induction in HEK293 cells stably expressing the human ghrelin receptor": 0.149}
{"binder": "H-PSS(Octanoyl)FLSPEHQRVQQRKESKKPPAKLQPR-OH", "note": "[H-PS-S(O-octanoyl)-FLSPEHQRVQQRKESKKPPAKLQPR-OH]", "EC50 (nM); Ca2+ induction in HEK293 cells stably expressing the human ghrelin receptor": 0.298}
{"binder": "H-PSS(Octanoyl)FLSPEHQRVQQRKESSKPPAKLQPR-NH2 (SMILES CCCCCCCC(=O)OC[C@H](NC(=O)[C@H](CO)NC(=O)[C@@H]1CCCN1)C(=O)N[C@@H](Cc1ccccc1)C(=O)N[C@@H](CC(C)C)C(=O)N[C@@H](CO)C(=O)N1CCC[C@H]1C(=O)N[C@@H](CCC(=O)O)C(=O)N[C@@H](Cc1c[nH]cn1)C(=O)N[C@@H](CCC(N)=O)C(=O)N[C@@H](CCCNC(=N)N)C(=O)N[C@H](C(=O)N[C@@H](CCC(N)=O)C(=O)N[C@@H](CCC(N)=O)C(=O)N[C@@H](CCCNC(=N)N)C(=O)N[C@@H](CCCCN)C(=O)N[C@@H](CCC(=O)O)C(=O)N[C@@H](CO)C(=O)N[C@@H](CO)C(=O)N[C@@H](CCCCN)C(=O)N1CCC[C@H]1C(=O)N1CCC[C@H]1C(=O)N[C@@H](C)C(=O)N[C@@H](CCCCN)C(=O)N[C@@H](CC(C)C)C(=O)N[C@@H](CCC(N)=O)C(=O)N1CCC[C@H]1C(=O)N[C@@H](CCCNC(=N)N)C(N)=O)C(C)C)", "note": "[H-PS-S(octanoyl)-FLSPEHQRVQQRKESSKPPAKLQPR-NH2]", "EC50 (nM); Ca2+ induction in HEK293 cells stably expressing the human ghrelin receptor": 0.095}
{"binder": "H-PSS(Octanoyl)FLSPEHQRVQQRKESKKPPAKLQPS-NH2 (SMILES CCCCCCCC(=O)OC[C@H](NC(=O)[C@H](CO)NC(=O)[C@@H]1CCCN1)C(=O)N[C@@H](Cc1ccccc1)C(=O)N[C@@H](CC(C)C)C(=O)N[C@@H](CO)C(=O)N1CCC[C@H]1C(=O)N[C@@H](CCC(=O)O)C(=O)N[C@@H](Cc1c[nH]cn1)C(=O)N[C@@H](CCC(N)=O)C(=O)N[C@@H](CCCNC(=N)N)C(=O)N[C@H](C(=O)N[C@@H](CCC(N)=O)C(=O)N[C@@H](CCC(N)=O)C(=O)N[C@@H](CCCNC(=N)N)C(=O)N[C@@H](CCCCN)C(=O)N[C@@H](CCC(=O)O)C(=O)N[C@@H](CO)C(=O)N[C@@H](CCCCN)C(=O)N[C@@H](CCCCN)C(=O)N1CCC[C@H]1C(=O)N1CCC[C@H]1C(=O)N[C@@H](C)C(=O)N[C@@H](CCCCN)C(=O)N[C@@H](CC(C)C)C(=O)N[C@@H](CCC(N)=O)C(=O)N1CCC[C@H]1C(=O)N[C@@H](CO)C(N)=O)C(C)C)", "note": "[H-PS-S(octanoyl)-FLSPEHQRVQQRKESKKPPAKLQPS-NH2]", "EC50 (nM); Ca2+ induction in HEK293 cells stably expressing the human ghrelin receptor": 0.039}
{"binder": "H-PSS(Octyl)FLSPEHSRPSSRPESSSPPAKLSPR-NH2 (SMILES CCCCCCCCOC[C@H](NC(=O)[C@H](CO)NC(=O)[C@@H]1CCCN1)C(=O)N[C@@H](Cc1ccccc1)C(=O)N[C@@H](CC(C)C)C(=O)N[C@@H](CO)C(=O)N1CCC[C@H]1C(=O)N[C@@H](CCC(=O)O)C(=O)N[C@@H](Cc1c[nH]cn1)C(=O)N[C@@H](CO)C(=O)N[C@@H](CCCNC(=N)N)C(=O)N1CCC[C@H]1C(=O)N[C@@H](CO)C(=O)N[C@@H](CO)C(=O)N[C@@H](CCCNC(=N)N)C(=O)N1CCC[C@H]1C(=O)N[C@@H](CCC(=O)O)C(=O)N[C@@H](CO)C(=O)N[C@@H](CO)C(=O)N[C@@H](CO)C(=O)N1CCC[C@H]1C(=O)N1CCC[C@H]1C(=O)N[C@@H](C)C(=O)N[C@@H](CCCCN)C(=O)N[C@@H](CC(C)C)C(=O)N[C@@H](CO)C(=O)N1CCC[C@H]1C(=O)N[C@@H](CCCNC(=N)N)C(N)=O)", "note": "[H-PS-S(O-octyl)-FLSPEHSRPSSRPESSSPPAKLSPR-NH2]", "EC50 (nM); Ca2+ induction in HEK293 cells stably expressing the human ghrelin receptor": 0.642}
{"binder": "H-PSS(Octanoyl)FLSPEHQRVQQRSESKKPPAKLQPR-NH2 (SMILES CCCCCCCC(=O)OC[C@H](NC(=O)[C@H](CO)NC(=O)[C@@H]1CCCN1)C(=O)N[C@@H](Cc1ccccc1)C(=O)N[C@@H](CC(C)C)C(=O)N[C@@H](CO)C(=O)N1CCC[C@H]1C(=O)N[C@@H](CCC(=O)O)C(=O)N[C@@H](Cc1c[nH]cn1)C(=O)N[C@@H](CCC(N)=O)C(=O)N[C@@H](CCCNC(=N)N)C(=O)N[C@H](C(=O)N[C@@H](CCC(N)=O)C(=O)N[C@@H](CCC(N)=O)C(=O)N[C@@H](CCCNC(=N)N)C(=O)N[C@@H](CO)C(=O)N[C@@H](CCC(=O)O)C(=O)N[C@@H](CO)C(=O)N[C@@H](CCCCN)C(=O)N[C@@H](CCCCN)C(=O)N1CCC[C@H]1C(=O)N1CCC[C@H]1C(=O)N[C@@H](C)C(=O)N[C@@H](CCCCN)C(=O)N[C@@H](CC(C)C)C(=O)N[C@@H](CCC(N)=O)C(=O)N1CCC[C@H]1C(=O)N[C@@H](CCCNC(=N)N)C(N)=O)C(C)C)", "note": "[H-PS-S(octanoyl)-FLSPEHQRVQQRSESKKPPAKLQPR-NH2]", "EC50 (nM); Ca2+ induction in HEK293 cells stably expressing the human ghrelin receptor": 0.182}
{"binder": "H-PSS(Octanoyl)FLSPEHQRVQQSKESKKPPAKLQPR-NH2 (SMILES CCCCCCCC(=O)OC[C@H](NC(=O)[C@H](CO)NC(=O)[C@@H]1CCCN1)C(=O)N[C@@H](Cc1ccccc1)C(=O)N[C@@H](CC(C)C)C(=O)N[C@@H](CO)C(=O)N1CCC[C@H]1C(=O)N[C@@H](CCC(=O)O)C(=O)N[C@@H](Cc1c[nH]cn1)C(=O)N[C@@H](CCC(N)=O)C(=O)N[C@@H](CCCNC(=N)N)C(=O)N[C@H](C(=O)N[C@@H](CCC(N)=O)C(=O)N[C@@H](CCC(N)=O)C(=O)N[C@@H](CO)C(=O)N[C@@H](CCCCN)C(=O)N[C@@H](CCC(=O)O)C(=O)N[C@@H](CO)C(=O)N[C@@H](CCCCN)C(=O)N[C@@H](CCCCN)C(=O)N1CCC[C@H]1C(=O)N1CCC[C@H]1C(=O)N[C@@H](C)C(=O)N[C@@H](CCCCN)C(=O)N[C@@H](CC(C)C)C(=O)N[C@@H](CCC(N)=O)C(=O)N1CCC[C@H]1C(=O)N[C@@H](CCCNC(=N)N)C(N)=O)C(C)C)", "note": "[H-PS-S(octanoyl)-FLSPEHQRVQQSKESKKPPAKLQPR-NH2]", "EC50 (nM); Ca2+ induction in HEK293 cells stably expressing the human ghrelin receptor": 0.168}
{"binder": "H-PSS(Octanoyl)FLSPEHQRVQQRKESKKPPASLQPR-NH2 (SMILES CCCCCCCC(=O)OC[C@H](NC(=O)[C@H](CO)NC(=O)[C@@H]1CCCN1)C(=O)N[C@@H](Cc1ccccc1)C(=O)N[C@@H](CC(C)C)C(=O)N[C@@H](CO)C(=O)N1CCC[C@H]1C(=O)N[C@@H](CCC(=O)O)C(=O)N[C@@H](Cc1c[nH]cn1)C(=O)N[C@@H](CCC(N)=O)C(=O)N[C@@H](CCCNC(=N)N)C(=O)N[C@H](C(=O)N[C@@H](CCC(N)=O)C(=O)N[C@@H](CCC(N)=O)C(=O)N[C@@H](CCCNC(=N)N)C(=O)N[C@@H](CCCCN)C(=O)N[C@@H](CCC(=O)O)C(=O)N[C@@H](CO)C(=O)N[C@@H](CCCCN)C(=O)N[C@@H](CCCCN)C(=O)N1CCC[C@H]1C(=O)N1CCC[C@H]1C(=O)N[C@@H](C)C(=O)N[C@@H](CO)C(=O)N[C@@H](CC(C)C)C(=O)N[C@@H](CCC(N)=O)C(=O)N1CCC[C@H]1C(=O)N[C@@H](CCCNC(=N)N)C(N)=O)C(C)C)", "note": "[H-PS-S(octanoyl)-FLSPEHQRVQQRKESKKPPASLQPR-NH2]", "EC50 (nM); Ca2+ induction in HEK293 cells stably expressing the human ghrelin receptor": 0.183}
{"binder": "H-PSS(Octanoyl)FLSPYHQRVQQRKESKKPPAKLQPR-NH2 (SMILES CCCCCCCC(=O)OC[C@H](NC(=O)[C@H](CO)NC(=O)[C@@H]1CCCN1)C(=O)N[C@@H](Cc1ccccc1)C(=O)N[C@@H](CC(C)C)C(=O)N[C@@H](CO)C(=O)N1CCC[C@H]1C(=O)N[C@@H](Cc1ccc(O)cc1)C(=O)N[C@@H](Cc1c[nH]cn1)C(=O)N[C@@H](CCC(N)=O)C(=O)N[C@@H](CCCNC(=N)N)C(=O)N[C@H](C(=O)N[C@@H](CCC(N)=O)C(=O)N[C@@H](CCC(N)=O)C(=O)N[C@@H](CCCNC(=N)N)C(=O)N[C@@H](CCCCN)C(=O)N[C@@H](CCC(=O)O)C(=O)N[C@@H](CO)C(=O)N[C@@H](CCCCN)C(=O)N[C@@H](CCCCN)C(=O)N1CCC[C@H]1C(=O)N1CCC[C@H]1C(=O)N[C@@H](C)C(=O)N[C@@H](CCCCN)C(=O)N[C@@H](CC(C)C)C(=O)N[C@@H](CCC(N)=O)C(=O)N1CCC[C@H]1C(=O)N[C@@H](CCCNC(=N)N)C(N)=O)C(C)C)", "note": "[H-PS-S(octanoyl)-FLSPYHQRVQQRKESKKPPAKLQPR-NH2]", "EC50 (nM); Ca2+ induction in HEK293 cells stably expressing the human ghrelin receptor": 0.719}
{"binder": "H-PSS(Octanoyl)FLSPEHQRVQQRKESKSPPAKLQPR-NH2 (SMILES CCCCCCCC(=O)OC[C@H](NC(=O)[C@H](CO)NC(=O)[C@@H]1CCCN1)C(=O)N[C@@H](Cc1ccccc1)C(=O)N[C@@H](CC(C)C)C(=O)N[C@@H](CO)C(=O)N1CCC[C@H]1C(=O)N[C@@H](CCC(=O)O)C(=O)N[C@@H](Cc1c[nH]cn1)C(=O)N[C@@H](CCC(N)=O)C(=O)N[C@@H](CCCNC(=N)N)C(=O)N[C@H](C(=O)N[C@@H](CCC(N)=O)C(=O)N[C@@H](CCC(N)=O)C(=O)N[C@@H](CCCNC(=N)N)C(=O)N[C@@H](CCCCN)C(=O)N[C@@H](CCC(=O)O)C(=O)N[C@@H](CO)C(=O)N[C@@H](CCCCN)C(=O)N[C@@H](CO)C(=O)N1CCC[C@H]1C(=O)N1CCC[C@H]1C(=O)N[C@@H](C)C(=O)N[C@@H](CCCCN)C(=O)N[C@@H](CC(C)C)C(=O)N[C@@H](CCC(N)=O)C(=O)N1CCC[C@H]1C(=O)N[C@@H](CCCNC(=N)N)C(N)=O)C(C)C)", "note": "[H-PS-S(octanoyl)-FLSPEHQRVQQRKESKSPPAKLQPR-NH2]", "EC50 (nM); Ca2+ induction in HEK293 cells stably expressing the human ghrelin receptor": 0.086}
